Results from paper PMC12416549 (2024).

T1: TNFR1 (Homo sapiens, UniProt P19438)
T1 chain: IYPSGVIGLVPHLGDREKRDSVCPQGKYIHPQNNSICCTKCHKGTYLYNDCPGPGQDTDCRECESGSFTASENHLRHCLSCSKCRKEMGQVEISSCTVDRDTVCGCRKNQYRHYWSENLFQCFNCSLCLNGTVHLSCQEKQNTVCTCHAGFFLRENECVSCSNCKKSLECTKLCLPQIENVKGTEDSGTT


Biological target: T1, TNFR1
Experiment: yeast display SC50

| Binder | apparent Kd (screen) |
| --- | --- |
| E81H (designed binder) SMEEEVEKAAKEYEKKKKEAIEKHLEKLKAKDKEAAERFLKELEEAAKEYAKDEAKTMSEEEAKRRAKKYKEKVLLSELSHEEQKEIKEAEEKLVRTILKYVEEAAK | 0.593 nM |
| Y13A (designed binder) SMEEEVEKAAKEAEKKKKEAIEKHLEKLKAKDKEAAERFLKELEEAAKEYAKDEAKTMSEEEAKRRAKKYKEKVLLSELSEEEQKEIKEAEEKLVRTILKYVEEAAK | 0.49 nM |
| K69N (designed binder) SMEEEVEKAAKEYEKKKKEAIEKHLEKLKAKDKEAAERFLKELEEAAKEYAKDEAKTMSEEEAKRRAKNYKEKVLLSELSEEEQKEIKEAEEKLVRTILKYVEEAAK | 2.48 nM |
| K93Q (designed binder) SMEEEVEKAAKEYEKKKKEAIEKHLEKLKAKDKEAAERFLKELEEAAKEYAKDEAKTMSEEEAKRRAKKYKEKVLLSELSEEEQKEIKEAEEQLVRTILKYVEEAAK | 0.49 nM |
| K85N (designed binder) SMEEEVEKAAKEYEKKKKEAIEKHLEKLKAKDKEAAERFLKELEEAAKEYAKDEAKTMSEEEAKRRAKKYKEKVLLSELSEEEQNEIKEAEEKLVRTILKYVEEAAK | 0.446 nM |
| L76N (designed binder) SMEEEVEKAAKEYEKKKKEAIEKHLEKLKAKDKEAAERFLKELEEAAKEYAKDEAKTMSEEEAKRRAKKYKEKVLNSELSEEEQKEIKEAEEKLVRTILKYVEEAAK | 2.73 nM |
| E44K (designed binder) SMEEEVEKAAKEYEKKKKEAIEKHLEKLKAKDKEAAERFLKELKEAAKEYAKDEAKTMSEEEAKRRAKKYKEKVLLSELSEEEQKEIKEAEEKLVRTILKYVEEAAK | 0.956 nM |
| H24S (designed binder) SMEEEVEKAAKEYEKKKKEAIEKSLEKLKAKDKEAAERFLKELEEAAKEYAKDEAKTMSEEEAKRRAKKYKEKVLLSELSEEEQKEIKEAEEKLVRTILKYVEEAAK | 0.869 nM |
| T57M (designed binder) SMEEEVEKAAKEYEKKKKEAIEKHLEKLKAKDKEAAERFLKELEEAAKEYAKDEAKMMSEEEAKRRAKKYKEKVLLSELSEEEQKEIKEAEEKLVRTILKYVEEAAK | 0.446 nM |
| E14Q (designed binder) SMEEEVEKAAKEYQKKKKEAIEKHLEKLKAKDKEAAERFLKELEEAAKEYAKDEAKTMSEEEAKRRAKKYKEKVLLSELSEEEQKEIKEAEEKLVRTILKYVEEAAK | 4.83 nM |
| V74D (designed binder) SMEEEVEKAAKEYEKKKKEAIEKHLEKLKAKDKEAAERFLKELEEAAKEYAKDEAKTMSEEEAKRRAKKYKEKDLLSELSEEEQKEIKEAEEKLVRTILKYVEEAAK | 0.405 nM |
| A106K (designed binder) SMEEEVEKAAKEYEKKKKEAIEKHLEKLKAKDKEAAERFLKELEEAAKEYAKDEAKTMSEEEAKRRAKKYKEKVLLSELSEEEQKEIKEAEEKLVRTILKYVEEAKK | 0.593 nM |
| T97V (designed binder) SMEEEVEKAAKEYEKKKKEAIEKHLEKLKAKDKEAAERFLKELEEAAKEYAKDEAKTMSEEEAKRRAKKYKEKVLLSELSEEEQKEIKEAEEKLVRVILKYVEEAAK | 2.73 nM |
